Data reported in patent US9498540B2, “Cell proliferation inhibitors and conjugates thereof” (NOVARTIS AG, priority 2013, dated 2016).
“And” between values parts separate entries of the source, which are not always exact repeats. Equal entries are not always repeated.

Assays:
[1] = Average drug loading (DAR, drug to antibody ratio) from LC/MS of reduced, deglycosylated conjugates; settings: conjugate with trastuzumab (TBS); average number of payload molecules per antibody
Source text: The immunoconjugates prepared as described above were characterized by LC/MS, as illustrated in FIG. 1 for one immunoconjugate. […] The conjugates were characterized in terms of average drug loading for a sample (DAR, drug to antibody ratio) and aggregation (expressed in %).
The DAR value is extrapolated from LC-MS data for reduced and deglycosylated samples. […] HPLC separates the antibody into light and heavy chains, and separates the heavy chain (HC) and light chain (LC) according to the number of Linker-Payload groups per chain. Mass spectral data enables identification of the component species in the mixture, e.g., LC, LC+1, LC+2, HC, HC+1, HC+2, etc. From the average loading on the LC and HC chains, the average drug to antibody ratio (DAR) can be calculated for an ADC (see FIG. 1B). The DAR for a given conjugate sample represents the average number of drug (payload) molecules attached to a tetrameric antibody containing two light chains and two heavy chains.

[2] = Aggregation of immunoconjugates by analytical size exclusion chromatography; format: physicochemical; settings: conjugate with trastuzumab (TBS); Superdex 200 5/150 GL run in PBS
Procedure: Aggregation was measured by analytical size exclusion chromatography (Superdex 200 5/150 GL run in PBS). It was observed that the extent of aggregation depends on the Linker-Payload and the DAR. […] Table 4 also indicates whether the linking group for each conjugate is stable or cleavable.

SMILES | DAR [1] | Aggregation % [2]
O=C(c1ccccn1)N(C[C@@H]1CN[C@H](CF)C1)[C@@H](c1nc(-c2cc(F)ccc2F)cn1Cc1ccccc1)C1CCOCC1 [Compound 65] | 3.2 | 11.4%
C[C@H](O)C(=O)N(CC[C@@H](N)CF)[C@@H](c1nc(-c2cc(F)ccc2F)nn1Cc1ccccc1)C(C)(C)C [Compound 8] | 3.2 | 1.4%
CNC(=O)N(CC[C@@H](N)CF)[C@@H](c1nc(-c2cc(F)ccc2F)cn1Cc1ccccc1)C(C)(C)C [Compound 27] | 3.4 | 12.1%
O=C([C@H]1CNCCO1)N(C[C@@H]1CNC[C@@H]1F)[C@@H](c1nc(-c2cc(F)ccc2F)cn1Cc1ccccc1)C1CCOCC1 [Compound 69] | 6 | 4.9%
C[C@@H]1CN(C(=O)N(CCCN)[C@@H](c2nc(-c3cc(F)ccc3F)nn2Cc2ccccc2)C(C)(C)C)C[C@H](C)O1 [Compound 3] | 5.4 | 52.5%
CC(C)(C)[C@H](c1nc(-c2cc(F)ccc2F)cn1Cc1ccccc1)N(CC[C@H](N)CF)C(=O)N1CCN(S(C)(=O)=O)CC1 [Compound 42] | 6 | 2.4%
CC(C)(C)[C@H](c1nc(-c2cc(F)ccc2F)cn1Cc1ccccc1)N(CC[C@@H](N)CF)C(=O)c1cccnc1 [Compound 51] | 5.6 | 56.5%
CC(C)(C)[C@H](c1nc(-c2cc(F)ccc2F)cn1Cc1ccccc1)N(CCC1(N)CC1)C(=O)[C@@H]1CCCO1 [Compound 30] | 3.9 | 2.5%
NCCSCC(=O)N(C[C@@H]1CNC[C@@H]1F)[C@@H](c1nc(-c2cc(F)ccc2F)cn1Cc1ccccc1)C1CCOCC1 [Compound 18] | 3 | 58.4%
C[C@H](O)C(=O)N(CCCN)[C@@H](c1nc(-c2cc(F)ccc2F)cn1Cc1ccccc1)C(C)(C)C [Compound 20] | 5.2 | 63.5%
CC(C)(C)[C@H](c1nc(-c2cc(F)ccc2F)nn1Cc1ccccc1)N(CCCN)C(=O)c1cccnc1 [Compound 64] | 2.9 | 49.3%
C[C@H](O)C(=O)N(C[C@@H]1CNC[C@@H]1F)[C@@H](c1nc(-c2cc(F)ccc2F)cn1Cc1ccccc1)C1CCOCC1 [Compound 12] | 5 | 4.7%
O=C(CCS)N(C[C@@H]1CNC[C@@H]1F)[C@@H](c1nc(-c2cc(F)ccc2F)cn1Cc1ccccc1)C1CCOCC1 [Compound 15] | 3.7 | 3.5%
C[C@@H]1CN(C(=O)N(C[C@@H]2CNC[C@@H]2F)[C@@H](c2nc(-c3cc(F)ccc3F)nn2Cc2cccc(F)c2)C(C)(C)C)C[C@H](C)O1 [Compound 26] | 2.6 | 33.5%
CC(C)(C)[C@H](c1nc(-c2cc(F)ccc2F)cn1Cc1ccccc1)N(CC[C@H](N)CF)C(=O)NO [Compound 22] | 6 | 84.5%
C[C@@H](CN)NC(=O)N(C[C@@H]1CNC[C@@H]1F)[C@@H](c1nc(-c2cc(F)ccc2F)cn1Cc1ccccc1)C1CCOCC1 [Compound 19] | 4.7 | 74.6%
C[C@H](O)C(=O)N(C[C@@H]1CNC[C@@H]1F)[C@@H](c1nc(-c2cc(F)ccc2F)cn1Cc1ccccc1)C1CCS(=O)(=O)CC1 [Compound 38] | 5.8 | 67.2%
COC[C@@H](N)CCN(C(=O)[C@H](C)O)[C@@H](c1nc(-c2cc(F)ccc2F)cn1Cc1ccccc1)C(C)(C)C [Compound 60] | 6.4 | 71.7%
C[C@H](O)C(=O)N(CC[C@H](N)CF)[C@@H](c1nc(-c2cc(F)ccc2F)cn1Cc1ccccc1)C1CCOCC1 [Compound 46] | 4.7 | 74.1%

SMILES | DAR [1] | Aggregation % [2]
N[C@H](CF)CCN(C(=O)CO)[C@@H](c1nc(-c2cc(F)ccc2F)cn1Cc1ccccc1)C1CCOCC1 [Compound 23] | 3.1 | 66.8%
C[C@H](O)C(=O)N(C[C@@H]1CNC[C@H]1O)[C@@H](c1nc(-c2cc(F)ccc2F)cn1Cc1ccccc1)C1CCOCC1 [Compound 48] | 4.4 and 5.2 | 63.8% and 35.3%
CC(C)(C)[C@H](c1nc(-c2cc(F)ccc2F)nn1Cc1ccccc1)N(CCCN)C(=O)N1CCN(S(C)(=O)=O)CC1 [Compound 44] | 4.8 | 41%
C[C@H](O)C(=O)N(CC[C@H](N)CF)[C@@H](c1nc(-c2cc(F)ccc2F)cn1Cc1cccc(F)c1)C(C)(C)C [Compound 73] | 4.5 | 60%
CC(C)(C)[C@H](c1nc(-c2cc(F)ccc2F)cn1Cc1ccccc1)N(C[C@@H](F)CN)C(=O)N1CCN(S(C)(=O)=O)CC1 [Compound 21] | 4.7 | 39.7%
C[C@H](O)C(=O)N(C[C@@H]1CNC[C@@H]1F)[C@@H](c1nc(-c2cc(F)ccc2F)cn1Cc1cccc(F)c1)C(C)(C)C [Compound 14] | 2.8 | 1.5%
CC(C)(C)[C@H](c1nc(-c2cc(F)ccc2F)cn1Cc1cccc(F)c1)N(C[C@@H]1CNC[C@@H]1F)C(=O)COCCN [Compound 76] | 3.1 | 48.5%
O=C(CI)N(C[C@@H]1CNC[C@@H]1F)[C@@H](c1nc(-c2cc(F)ccc2F)cn1Cc1ccccc1)C1CCOCC1 [Compound 25] | 2.2 | 60.8%
CNC(=O)N(CC[C@H]1COCCN1)[C@@H](c1nc(-c2cc(F)ccc2F)cn1Cc1ccccc1)C(C)(C)C [Compound 4] | 4.8 | 72.9%
CC(C)(C)[C@H](c1nc(-c2cc(F)ccc2F)nn1Cc1ccccc1)N(CC[C@@H](N)CF)C(=O)N1CCSCC1 [Compound 43] | 6.1 | 7.7%
C[C@H](O)C(=O)N(C[C@@H]1CNC[C@@H]1F)[C@H](c1nc(-c2cc(F)ccc2F)cn1Cc1ccccc1)C1CCS(=O)(=O)CC1 [Compound 47] | 5.1 | 65.2%
CC(C)(C)[C@H](c1nc(-c2cc(F)ccc2F)cn1Cc1cccc(F)c1)N(C[C@@H]1CNC[C@@H]1F)C(=O)CCS [Compound 67] | 3.4 | 63.2%
O=C(NC[C@@H](O)CO)N(C[C@@H]1CNC[C@@H]1F)[C@@H](c1nc(-c2cc(F)ccc2F)cn1Cc1ccccc1)C1CCOCC1 [Compound 68] | 4.6 | 62.6%
NCCCCCCSCC(=O)N(C[C@@H]1CNC[C@@H]1F)[C@@H](c1nc(-c2cc(F)ccc2F)cn1Cc1ccccc1)C1CCOCC1 [Compound 57] | 5 | 57%
C[C@@H](CO)NC(=O)N(C[C@@H]1CNC[C@@H]1F)[C@@H](c1nc(-c2cc(F)ccc2F)cn1Cc1ccccc1)C1CCOCC1 [Compound 17] | 5.8 | 55%
O=C(NC[C@H](O)CO)N(C[C@@H]1CNC[C@@H]1F)[C@@H](c1nc(-c2cc(F)ccc2F)cn1Cc1ccccc1)C1CCOCC1 [Compound 74] | 3 | 39.1%
C[C@H](O)C(=O)N(C[C@H]1CNC[C@H]1F)[C@@H](c1nc(-c2cc(F)ccc2F)cn1Cc1ccccc1)C1CCOCC1 [Compound 53] | 2.7 | 25.7%
CC(C)(C)[C@H](c1nc(-c2cc(F)ccc2F)cn1Cc1ccccc1)N(CC[C@H]1COCCN1)C(=O)CO [Compound 5] | 5.4 | 48.7%
